Laboratory results published in US20200347136A1 (published 2020).
Values belong to the binder of their own block, whether it stands above or below them. Bridge positions count the residues as written; N and C are the ends. Square brackets hold non-standard residues; d marks the D form. DBF = dibenzofuran moiety used in place of Pro-Pro

How the values were obtained:
[1] = molecular target: T1, CD58 expressed on OVCAR-3 and HFLS-RA cells (human, UniProt P19256 29-250); assay: cell-based or functional assay
T1 sequence (looked up): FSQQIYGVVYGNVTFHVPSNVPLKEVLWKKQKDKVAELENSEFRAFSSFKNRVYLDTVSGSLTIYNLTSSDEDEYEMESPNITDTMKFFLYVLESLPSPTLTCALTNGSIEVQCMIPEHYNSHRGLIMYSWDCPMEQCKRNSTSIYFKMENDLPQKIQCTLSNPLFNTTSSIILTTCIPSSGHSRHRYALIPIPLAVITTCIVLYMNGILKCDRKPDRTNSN

[2] = molecular target: CD58 expressed on sheep red blood cells (SRBC) (sheep); assay: cell-based or functional assay

Binder: cyclo(CKSA[DBF]SCAYDGDD) (disulfide 1-7 (inferred)) [SFTI-DBF]
IC50, inhibition of adhesion between Jurkat and HFLS-RA cells [1]: 3 nM | IC50, inhibition of adhesion between Jurkat and OVCAR-3 cells [1]: 0.61 nM

Binder: cyclo(SIYD[dP]PDDIK) [Peptide 6]
IC50, inhibition of E-rosette formation [2]: 9.4 nM

Next, values leading:

IC50, cell adhesion inhibition [1]: 22 nM
B1: SFTI-a1 (peptide)
peptide: cyclo(CKSAPPSCAYDGDD)
modifications: disulfide 1-8
SMILES: C[C@@H]1NC(=O)[C@@H]2CSSC[C@H](NC(=O)[C@H](CC(=O)O)NC(=O)[C@H](CC(=O)O)NC(=O)CNC(=O)[C@H](CC(=O)O)NC(=O)[C@H](Cc3ccc(O)cc3)NC1=O)C(=O)N[C@@H](CCCCN)C(=O)N[C@@H](CO)C(=O)N[C@@H](C)C(=O)N1CCC[C@H]1C(=O)N1CCC[C@H]1C(=O)N[C@@H](CO)C(=O)N2

IC50, cell adhesion (PPI) inhibition [1]: 51 nM
B2: SFTI-a (peptide)
peptide: cyclo(CKASAPPSCYDGDD)
modifications: disulfide 1-9
SMILES: C[C@@H]1NC(=O)[C@H](CCCCN)NC(=O)[C@@H]2CSSC[C@H](NC(=O)[C@H](CO)NC(=O)[C@@H]3CCCN3C(=O)[C@@H]3CCCN3C(=O)[C@H](C)NC(=O)[C@H](CO)NC1=O)C(=O)N[C@@H](Cc1ccc(O)cc1)C(=O)N[C@@H](CC(=O)O)C(=O)NCC(=O)N[C@@H](CC(=O)O)C(=O)N[C@@H](CC(=O)O)C(=O)N2
